Source: paper PMC6529632, “Robust Stoichiometry of FliW-CsrA Governs Flagellin Homeostasis and Cytoplasmic Organization in Bacillus subtilis” (mBio, 2019)

Experiments:
[1] = tested on: CsrA-Hetero (CsrA-WT-His6/CsrA-N55D-strep) (Bacillus subtilis (3610?)); assay: EMSA; conditions: apparent Kd; main text gives 460 nM; 40 mM Tris-HCl pH 7.5, 4 mM MgCl2, 100 mM KCl, 20 ng/ul yeast RNA, 20 mM DTT, 10% glycerol, 4 U RNase inhibitor, 20 pM RNA, 37 C 30 min (FliW added for a …)
[2] = tested on: CsrA-N55D-strep (Bacillus subtilis (3610?)); assay: EMSA; conditions: apparent Kd; 40 mM Tris-HCl pH 7.5, 4 mM MgCl2, 100 mM KCl, 20 ng/ul yeast RNA, 20 mM DTT, 10% glycerol, 4 U RNase inhibitor, 20 pM RNA, 37 C 30 min (FliW added for a …)
[3] = tested on: CsrA-WT-His6 (Bacillus subtilis (3610?)); assay: EMSA; conditions: apparent Kd; main text gives 290 nM; 40 mM Tris-HCl pH 7.5, 4 mM MgCl2, 100 mM KCl, 20 ng/ul yeast RNA, 20 mM DTT, 10% glycerol, 4 U RNase inhibitor, 20 pM RNA, 37 C 30 min (FliW added for a …)
[4] = tested on: FliW (Bacillus subtilis (3610?)); assay: EMSA; conditions: apparent Kd; FliW alone; 40 mM Tris-HCl pH 7.5, 4 mM MgCl2, 100 mM KCl, 20 ng/ul yeast RNA, 20 mM DTT, 10% glycerol, 4 U RNase inhibitor, 20 pM RNA, 37 C 30 min (FliW added for a …)
[5] = target: T1, CsrA-Hetero (CsrA-WT-His6/CsrA-N55D-strep) N55D (Bacillus subtilis (3610?)) (UniProt P33911+P33911); assay: EMSA; conditions: 40 mM Tris-HCl pH 7.5, 4 mM MgCl2, 100 mM KCl, 20 ng/ul yeast RNA, 20 mM DTT, 10% glycerol, 4 U RNase inhibitor, 20 pM RNA, 37 C 30 min (FliW added for a …)
T1 sequence 1: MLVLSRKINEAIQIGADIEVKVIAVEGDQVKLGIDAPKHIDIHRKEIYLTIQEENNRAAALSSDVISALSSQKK
T1 sequence 2: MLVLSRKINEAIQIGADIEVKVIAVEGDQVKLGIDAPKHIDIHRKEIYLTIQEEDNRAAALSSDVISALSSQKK

[6] = target: T2, CsrA-N55D-strep N55D (Bacillus subtilis (3610?)) (UniProt P33911); assay: EMSA; conditions: 40 mM Tris-HCl pH 7.5, 4 mM MgCl2, 100 mM KCl, 20 ng/ul yeast RNA, 20 mM DTT, 10% glycerol, 4 U RNase inhibitor, 20 pM RNA, 37 C 30 min (FliW added for a …)
T2 sequence: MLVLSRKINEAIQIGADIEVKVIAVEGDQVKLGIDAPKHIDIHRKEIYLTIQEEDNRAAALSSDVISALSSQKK

[7] = target: T3, CsrA-WT-His6 (Bacillus subtilis (3610?)) (UniProt P33911); assay: EMSA; conditions: 40 mM Tris-HCl pH 7.5, 4 mM MgCl2, 100 mM KCl, 20 ng/ul yeast RNA, 20 mM DTT, 10% glycerol, 4 U RNase inhibitor, 20 pM RNA, 37 C 30 min (FliW added for a …)
T3 sequence: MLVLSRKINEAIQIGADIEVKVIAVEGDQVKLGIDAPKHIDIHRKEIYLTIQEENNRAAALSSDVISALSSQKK

[8] = target: T4, FliW (Bacillus subtilis (3610?)) (UniProt P96503); assay: EMSA; conditions: 40 mM Tris-HCl pH 7.5, 4 mM MgCl2, 100 mM KCl, 20 ng/ul yeast RNA, 20 mM DTT, 10% glycerol, 4 U RNase inhibitor, 20 pM RNA, 37 C 30 min (FliW added for a …)
T4 sequence: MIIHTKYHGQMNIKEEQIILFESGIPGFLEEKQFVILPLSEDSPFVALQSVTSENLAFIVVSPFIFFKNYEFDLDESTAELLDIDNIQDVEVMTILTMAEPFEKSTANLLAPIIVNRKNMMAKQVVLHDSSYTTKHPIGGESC

[9] = target: T5, CsrA^N55D-strep (monomer co-expressed with CsrA^WT-His6) (Bacillus subtilis, UniProt P33911 1-74, N55D); assay: sequential affinity co-purification with SDS-PAGE; both chains co-expressed from one vector in E. coli; Ni-NTA by the His6 tag, then Strep-Tactin by the Strep tag, then size exclusion; Coomassie-stained denaturing gel, densitometry; conditions: partners not purified
T5 construct: CsrA of Bacillus subtilis with N55D; Same chain as in m2 and m3; Written as a single chain for the pair row of the heterodimer; also called CsrA^N55D-strep tag; source: Rosetta-gami E. coli, co-expressed with CsrA^WT-His6 from dual-expression vector pRO76
T5 sequence (looked up): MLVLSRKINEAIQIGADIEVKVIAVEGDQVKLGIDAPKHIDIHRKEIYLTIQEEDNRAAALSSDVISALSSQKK

In the case of hag 5' UTR transcript +1 to +100, the Kd [1] is reported as 458 nM, the Kd [2] is reported as 960 nM and the Kd [3] is reported as 287 nM. It also gave a Kd [4] of 1110 nM.

For “GGUAGCCGGGAGGAGGCGCAAAAGACUCAGCCAGUUACAAAAUAAGGGCACAAGGACGUGCCUUAACAACAUAUUCAGGGAGGAACAAAACAAUGAGAAUU [hag 5' UTR transcript +1 to +100]”, the Kd [5] was 458 nM, the Kd [6] was 960 nM and the binding [6] was “binds”. For the same molecule, the Kd [7] was 287 nM and the Kd [8] was 1110 nM.

B1: CsrA^WT-His6 (monomer co-expressed with CsrA^N55D-strep) (natural protein, Bacillus subtilis, UniProt P33911 1-74, looked up)
chain: MLVLSRKINEAIQIGADIEVKVIAVEGDQVKLGIDAPKHIDIHRKEIYLTIQEENNRAAALSSDVISALSSQKK
notes: CsrA of Bacillus subtilis, wild type, amplified from pCSB9; Same chain as in m1 and m3; Written as a single chain for the pair row of the heterodimer; also called CsrA-His6; source: Rosetta-gami E. coli, co-expressed with CsrA^N55D-strep from dual-expression vector pRO76
For B1, the “stoichiometry N” value [9] was 0.88.
